Patent publication US20180118789A1

Columns and labels:
[1] = molecular target: mouse melanocortin 1 receptor (mouse) (UniProt Q01727); test: cell-based or functional assay
[2] = molecular target: mouse melanocortin 3 receptor (mouse) (UniProt P33033); test: cell-based or functional assay
Chain of mouse melanocortin 3 receptor (mouse) (P33033 whole entry): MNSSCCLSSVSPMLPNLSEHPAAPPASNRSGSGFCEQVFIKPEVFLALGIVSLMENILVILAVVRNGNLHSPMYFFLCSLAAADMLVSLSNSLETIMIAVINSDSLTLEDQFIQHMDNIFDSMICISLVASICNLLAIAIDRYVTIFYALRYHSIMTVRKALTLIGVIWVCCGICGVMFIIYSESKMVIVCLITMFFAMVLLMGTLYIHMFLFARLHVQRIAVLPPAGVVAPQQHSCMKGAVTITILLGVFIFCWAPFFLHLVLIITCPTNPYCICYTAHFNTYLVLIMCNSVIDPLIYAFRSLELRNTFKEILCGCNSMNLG

Chain of mouse melanocortin 1 receptor (mouse) (Q01727 whole entry): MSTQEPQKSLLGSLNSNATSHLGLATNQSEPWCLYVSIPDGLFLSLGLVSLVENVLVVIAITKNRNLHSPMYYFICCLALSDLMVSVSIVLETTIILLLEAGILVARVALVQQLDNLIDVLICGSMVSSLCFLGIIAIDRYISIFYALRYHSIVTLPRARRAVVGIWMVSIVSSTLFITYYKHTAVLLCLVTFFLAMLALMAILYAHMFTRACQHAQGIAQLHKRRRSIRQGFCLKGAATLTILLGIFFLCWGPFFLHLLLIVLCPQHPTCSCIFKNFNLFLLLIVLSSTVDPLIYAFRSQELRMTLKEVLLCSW

For “NDP-MSH (4-Norleucine-7-D-Phenylalanine), Ac-Ser-Tyr-Ser-Nle-Glu-His-DPhe-Arg-Trp-Gly-Lys-Pro-Val-NH2 (peptide)”, the EC50 (nM), agonist, cAMP AlphaScreen [1] was 0.015 nM and the EC50 (nM), agonist, cAMP AlphaScreen [2] was 0.09 nM.
